From PMC4804749 come the findings set out here.

The target of the series is His111 (UniProt position 111, …). As to the kind of experiment: NMR. As to conditions: 288 K.

The pKa is the pH at which an ionisable group is half protonated. Read a high pKa as a weaker acid or stronger base.

For KTNMKHMAGA [Prion protein fragment PrP(106-115) (Homo sapiens)], the pKa result was “∼5”. For the same protein, where the note is “Free peptide, no copper, 0.3 mM peptide”, the pKa is given as 6.2.
